{"source": "patent US20240270821A1", "about": "“GIP/GLP1/GCG TRI-RECEPTOR AGONISTS AND USES THEREOF” (priority 2023, published 2024)", "molecules": {"B1": {"name": "Example 579 (peptide)", "chain": "YXQGTXTSDXSILLDKKAQXAFIEWLQEGGPSSGEPPPSGTEE", "modifications": "non-natural residues; lysine acylated with C18 diacid; C-terminal amide; synthetic construct; SITE 2: note = 2-Aminoisobutyric Acid; SITE 6: note = alpha-methyl-2-fluoro-L-phenylalanine; SITE 10: note = 3-(4-Pyridyl)-L-alanine; SITE 17: note = Lysine is chemically modified through conjugation of the epsilon-amino group of the Lysine side chain with (gamma-Glu)2-CO-(CH2)1"}, "B2": {"name": "Example 548 (peptide)", "chain": "YXQGTXTSDXXILLDXKAQXXFIEYLIEGGPSSGEPPPSGTGE", "modifications": "synthetic construct; SITE 2: note = 2-Aminoisobutyric Acid; SITE 6: note = alpha-methyl-2-fluoro-L-phenylalanine; SITE 10: note = 3-(4-Pyridyl)-L-alanine; SITE 11: note = alpha-methyl-L-serine; SITE 16: note = L-ornithine; SITE 17: note = Lysine is chemically modified through conjugation of the epsi"}, "B3": {"name": "Example 583 (peptide)", "chain": "B1 chain with K16X, W25Y", "modifications": "acylated lysine (γ-Glu)2 C18 diacid; non-natural residues; C-terminal amide; synthetic construct; SITE 2: note = 2-Aminoisobutyric Acid; SITE 6: note = alpha-methyl-2-fluoro-L-phenylalanine; SITE 10: note = 3-(4-Pyridyl)-L-alanine; SITE 16: note = L-ornithine; SITE 17: note = Lysine is chemically modified through conjugation of the epsilon-amino group of the Lysine side chai"}}, "key": {"hGIPR [1]": {"molecular_target": "T1, hGIPR (Homo sapiens, UniProt P48546)", "T1 sequence (P48546 22-466)": "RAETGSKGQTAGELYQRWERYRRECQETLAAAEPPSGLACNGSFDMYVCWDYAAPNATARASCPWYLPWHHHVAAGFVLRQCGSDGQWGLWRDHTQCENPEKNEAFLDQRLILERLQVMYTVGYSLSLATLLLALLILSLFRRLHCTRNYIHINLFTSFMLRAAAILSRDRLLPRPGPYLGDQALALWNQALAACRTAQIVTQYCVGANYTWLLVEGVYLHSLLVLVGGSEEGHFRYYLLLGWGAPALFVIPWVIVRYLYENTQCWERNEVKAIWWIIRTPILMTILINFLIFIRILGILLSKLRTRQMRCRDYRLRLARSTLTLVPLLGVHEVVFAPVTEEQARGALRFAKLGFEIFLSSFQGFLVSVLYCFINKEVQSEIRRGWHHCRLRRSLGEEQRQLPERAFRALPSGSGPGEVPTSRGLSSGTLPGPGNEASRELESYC", "experiment": "Functional cAMP activity in the presence of 1% HSA", "assay_type": "cell-based", "conditions": "read-out: cAMP Rel EC50, hGIPR"}, "hGLP-1R [2]": {"molecular_target": "T2, hGLP-1R (Homo sapiens, UniProt P43220)", "experiment": "Functional cAMP activity in the presence of 1% HSA", "assay_type": "cell-based", "conditions": "read-out: cAMP Rel EC50, hGLP-1R"}, "human GcgR": {"molecular_target": "human GcgR (Homo sapiens, UniProt P47871)", "sequence (P47871 26-477)": "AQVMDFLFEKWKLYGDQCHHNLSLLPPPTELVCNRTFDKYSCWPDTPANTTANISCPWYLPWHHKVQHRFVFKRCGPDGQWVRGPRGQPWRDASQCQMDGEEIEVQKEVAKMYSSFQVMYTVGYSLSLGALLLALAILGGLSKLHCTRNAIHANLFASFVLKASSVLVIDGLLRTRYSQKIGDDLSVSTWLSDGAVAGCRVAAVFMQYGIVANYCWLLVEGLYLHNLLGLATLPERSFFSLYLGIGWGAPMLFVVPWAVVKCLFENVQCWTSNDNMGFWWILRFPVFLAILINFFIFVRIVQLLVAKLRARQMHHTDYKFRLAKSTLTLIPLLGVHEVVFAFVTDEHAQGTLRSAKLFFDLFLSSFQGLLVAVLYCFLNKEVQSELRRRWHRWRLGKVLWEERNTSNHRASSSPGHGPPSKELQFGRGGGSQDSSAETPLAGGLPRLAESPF", "experiment": "Functional cAMP activity in the presence of 1% HSA", "assay_type": "cell-based", "conditions": "read-out: cAMP Rel EC50, hGcgR"}, "hGIPR [3]": {"molecular_target": "T1, hGIPR", "experiment": "Functional cAMP activation in the presence of 0.1% casein (no HSA);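 for Relative cAMP EC50, hGIPR: intracellular cAMP rise after 30 min at 37 °C read by HTRF against a standard curve, scaled between buffer alone (0%) and top control ligand concentration (100%), four-parameter fit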;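 for Relative cAMP EC50, hGLP-1R: intracellular cAMP rise after 30 min at 37 °C read by HTRF, normalized between buffer only (0%) and maximal control ligand (100%), four-parameter variable-slope fit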;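 for Relative cAMP EC50, hGcgR: intracellular cAMP rise after 30 min at 37 °C, read by HTRF against a cAMP standard curve, scaled from buffer only (0%) to maximal control ligand response (100%)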", "assay_type": "cell-based", "conditions": "in the presence of 0.1% casein (no HSA); geometric mean; read-out: Relative cAMP EC50, hGIPR"}, "hGLP-1R [4]": {"molecular_target": "T2, hGLP-1R", "experiment": "Functional cAMP activation in the presence of 0.1% casein (no HSA)", "assay_type": "cell-based", "conditions": "in the presence of 0.1% casein (no HSA); geometric mean; read-out: Relative cAMP EC50, hGLP-1R"}, "hGcgR": {"molecular_target": "hGcgR (Homo sapiens, UniProt P47871)", "sequence (P47871 26-477)": "as above", "experiment": "Functional cAMP activation in the presence of 0.1% casein (no HSA)", "assay_type": "cell-based", "conditions": "in the presence of 0.1% casein (no HSA); geometric mean; read-out: Relative cAMP EC50, hGcgR"}, "[5]": {"experiment": "Pharmacokinetics in male Sprague Dawley rats, single subcutaneous administration", "conditions": "rat, in vivo, sc, 10 nmol/kg", "experimental": "The pharmacokinetics of the exemplary analogs are evaluated following a single subcutaneous (SC) administration of 10 nmol/kg (dissolved in 40 mM Tris pH8) or single 4 mg/kg (mixed with 250 mM sodium decanoate/C10 in 40 mM Tris pH8) intrajejunal (IJ) administration to male Sprague Dawley rats. Blood samples are collected over 96 hours following SC administration and 72 hours following IJ dosing, and resulting individual plasma concentrations are used to calculate pharmacokinetic parameters. Peptide plasma (K3 EDTA) concentrations are determined using a qualified LC/MS method that measured the intact mass of the analog. Each peptide and an analog as an internal standard are extracted from rat plasma using methanol. A High Resolution Instrument was used for LC/MS detection."}, "[6]": {"experiment": "Body weight in diet-induced obese C57BL/6 mice", "assay_type": "in vivo", "conditions": "10 nmol/kg SC Q3D, 14 days, percent of starting weight, DIO mice, mean ± SEM n=5", "how_it_was_run": "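Daily weighing gave body weight as percent of starting value (mean±SEM, n=5) over 9-16 days of SC dosing, once daily or every 3 days, shortly before lights-off. Animals were weight-randomized male C57BL/6 DIO mice, 41-50 g, fed ad libitum on a calorie-rich diet.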"}, "human GLP1-R": {"molecular_target": "human GLP1-R (Homo sapiens, UniProt P43220)", "sequence (P43220 24-463)": "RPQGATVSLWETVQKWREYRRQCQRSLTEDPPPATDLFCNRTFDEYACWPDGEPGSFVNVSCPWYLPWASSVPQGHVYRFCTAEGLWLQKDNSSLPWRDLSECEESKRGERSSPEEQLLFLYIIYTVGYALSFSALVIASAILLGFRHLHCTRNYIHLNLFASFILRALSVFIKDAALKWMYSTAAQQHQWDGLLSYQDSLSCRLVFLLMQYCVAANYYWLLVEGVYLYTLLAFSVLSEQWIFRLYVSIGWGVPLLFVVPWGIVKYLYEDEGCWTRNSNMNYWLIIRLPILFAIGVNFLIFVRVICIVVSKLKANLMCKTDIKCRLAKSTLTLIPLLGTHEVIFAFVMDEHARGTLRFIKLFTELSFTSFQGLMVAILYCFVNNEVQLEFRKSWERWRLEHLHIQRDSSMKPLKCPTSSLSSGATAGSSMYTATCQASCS", "experiment": "GLP1-R internalization assay in HEK293 cells", "assay_type": "cell-based"}, "hGLP-1R [7]": {"molecular_target": "T2, hGLP-1R", "experiment": "GLP-1R CHO cell β-arrestin recruitment assay;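 note: luminescence read after 90 min peptide exposure at 37 °C and a further 60 min with detection reagent at room temperature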", "assay_type": "cell-based", "parameters": "host or cells: CHO-K1 (PathHunter, assay-ready frozen cells)"}, "hGLP-1R [8]": {"molecular_target": "T2, hGLP-1R", "experiment": "cell-based or functional assay"}, "[9]": {"molecular_target": "T3, human GIP receptor (hGIPR) (human) (UniProt P48546)", "T3 sequence (looked up)": "T1 sequence (P48546 22-466)", "experiment": "cell-based or functional assay"}, "[10]": {"molecular_target": "T4, human GIP receptor (human) (UniProt P48546)", "T4 sequence (looked up)": "T1 sequence (P48546 22-466)", "experiment": "cell-based or functional assay"}, "[11]": {"molecular_target": "human GLP-1 receptor (hGLP-1R) (human) (UniProt P43220)", "sequence (P43220 24-463)": "as above", "experiment": "cell-based or functional assay"}, "[12]": {"molecular_target": "human glucagon receptor (hGcgR) (human) (UniProt P47871)", "sequence (P47871 26-477)": "as the sequence (P47871 26-477) above", "experiment": "cell-based or functional assay"}, "[13]": {"molecular_target": "human glucagon receptor (human) (UniProt P47871)", "sequence (P47871 26-477)": "as above", "experiment": "cell-based or functional assay"}, "[14]": {"molecular_target": "human GLP-1R (SNAP-GLP-1R expressed in HEK293 cells) (human) (UniProt P43220)", "sequence (P43220 24-463)": "as the sequence (P43220 24-463) above", "experiment": "cell-based or functional assay"}}, "note": "Where a chain is given by its changes, count along the chain named. Marks after values point to notes of the source that are not given here. Starred links: 1 amine or outer side, 2 acyl side, 3 side chain; linkers in the order of their positions; H or OH if unused. Non-standard residues stand in square brackets, D forms with d. Groups on a side chain read outwards from the residue. No end group written: not given here. *: point of attachment. C20 diacid = O=C(O)CCCCCCCCCCCCCCCCCCC(=O)*; γGlu = O=C(O)[C@H](CCC(=O)[*:2])N[*:1]; αMeL = CC(C)C[C@](C)(N)C(=O)O; AEEA = NCCOCCOCC(=O)O; Aib = CC(C)(N)C(=O)O"}
{"molecule": "Y[Aib]QGTFTSDFSK[αMeL]LDKK([AEEA-γGlu-C20 diacid])AQ[Aib]AFIEYLLAGGPSSGEPPPSGE-NH2 [Example 2]", "values": [{"measurement": "EC50", "setting": "hGIPR [1]", "result": 75.5, "unit": "nM"}, {"measurement": "EC50", "setting": "hGLP-1R [2]", "result": 631, "unit": "nM"}, {"measurement": "EC50", "setting": "human GcgR", "result": 1630, "unit": "nM"}, {"measurement": "EC50", "setting": "hGIPR [3]", "result": 0.207, "unit": "nM"}, {"measurement": "EC50", "setting": "hGLP-1R [4]", "result": 1.65, "unit": "nM"}, {"measurement": "EC50", "setting": "hGcgR", "result": 4.29, "unit": "nM"}, {"measurement": "CL/F", "setting": "[5]", "result": 0.143, "unit": "mL/min/kg"}, {"measurement": "half-life", "setting": "[5]", "result": 726, "unit": "min"}, {"measurement": "Body weight (%)", "setting": "[6]", "result": "77.90 +/− 1.90**** %"}, {"measurement": "EC50", "setting": "human GLP1-R; HEK293 cells expressing SNAP-GLP-1R, read-out: GLP1R Internalization EC50", "result": 49.5, "unit": "nM"}, {"measurement": "Internalization % TOP", "setting": "human GLP1-R; normalized to maximum concentration of GLP-1 (100%)", "result": 66.8, "unit": "%"}, {"measurement": "EC50", "setting": "hGLP-1R [7]; CHO-K1 PathHunter, β-arrestin-2, 0.1% casein, read-out: hGLP1R β-arrestin Rel EC50", "result": "> 10", "unit": "µM"}, {"measurement": "% Stimulation Max", "setting": "hGLP-1R [7]; normalized to GLP-1(7-36) as maximum control", "result": 12.3, "unit": "%"}]}
{"molecule": "B1", "values": [{"measurement": "cAMP Rel EC50, nM (presence of 1% HSA)", "setting": "hGLP-1R [8]", "result": 67.3, "unit": "nM"}, {"measurement": "Relative cAMP EC50", "setting": "[9]", "result": 0.0171, "unit": "nM"}, {"measurement": "cAMP Rel EC50, nM (presence of 1% HSA)", "setting": "[10]", "result": 3.79, "unit": "nM"}, {"measurement": "Relative cAMP EC50", "setting": "[11]", "result": 0.252, "unit": "nM"}, {"measurement": "Relative cAMP EC50", "setting": "[12]", "result": 2.36, "unit": "nM"}, {"measurement": "cAMP Rel EC50, nM (presence of 1% HSA)", "setting": "[13]", "result": 679, "unit": "nM"}]}
{"molecule": "B2", "values": [{"measurement": "cAMP Rel EC50, nM (presence of 1% HSA)", "setting": "hGLP-1R [8]", "result": 38, "unit": "nM"}, {"measurement": "Relative cAMP EC50", "setting": "[9]", "result": 0.0547, "unit": "nM"}, {"measurement": "cAMP Rel EC50, nM (presence of 1% HSA)", "setting": "[10]", "result": 3.48, "unit": "nM"}, {"measurement": "Relative cAMP EC50", "setting": "[11]", "result": 0.478, "unit": "nM"}, {"measurement": "GLP1R Internalization EC50", "setting": "[14]", "result": 17.8, "unit": "nM"}, {"measurement": "Internalization % TOP", "setting": "[14]", "result": 109, "unit": "%"}, {"measurement": "Relative cAMP EC50", "setting": "[12]", "result": 3.94, "unit": "nM"}, {"measurement": "cAMP Rel EC50, nM (presence of 1% HSA)", "setting": "[13]", "result": 295, "unit": "nM"}]}
{"molecule": "B3", "values": [{"measurement": "cAMP Rel EC50, nM (presence of 1% HSA)", "setting": "hGLP-1R [8]", "result": 71, "unit": "nM"}, {"measurement": "Relative cAMP EC50", "setting": "[9]", "result": 0.0692, "unit": "nM"}, {"measurement": "cAMP Rel EC50, nM (presence of 1% HSA)", "setting": "[10]", "result": 12.3, "unit": "nM"}, {"measurement": "Relative cAMP EC50", "setting": "[11]", "result": 0.542, "unit": "nM"}, {"measurement": "Relative cAMP EC50", "setting": "[12]", "result": 6.32, "unit": "nM"}, {"measurement": "cAMP Rel EC50, nM (presence of 1% HSA)", "setting": "[13]", "result": 1250, "unit": "nM"}]}
